Assay results reported in EP4538285A1.

Biological target: wild-type human PD-1, expressed on cells (PD1-CD28) (human) (UniProt P10747)
Experiment: cell-based or functional assay

Chain of wild-type human PD-1, expressed on cells (PD1-CD28) (human) (P10747 other isoform, or with tags, fused parts or gaps limits assumed): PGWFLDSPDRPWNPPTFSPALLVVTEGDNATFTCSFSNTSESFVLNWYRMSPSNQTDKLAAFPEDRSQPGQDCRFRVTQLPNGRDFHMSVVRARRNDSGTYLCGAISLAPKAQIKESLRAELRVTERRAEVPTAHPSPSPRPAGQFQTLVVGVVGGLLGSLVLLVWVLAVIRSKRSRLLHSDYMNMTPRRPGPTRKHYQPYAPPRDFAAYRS

## Tilelizumab (antibody)
  IL-2 concentration (pg/ml) at 0.8 nM: 432 pg/mL
  IL-2 concentration (pg/ml) at 1.6 nM: 440 pg/mL
  IL-2 concentration (pg/ml) at 3.2 nM: 440 pg/mL
  IL-2 concentration (pg/ml) at 6.4 nM: 56.1 pg/mL
  IL-2 concentration (pg/ml) at 12.8 nM: 36.9 pg/mL
  IL-2 concentration (pg/ml) at 25.6 nM: 47.7 pg/mL
  IL-2 concentration (pg/ml) at 51.2 nM: 80.5 pg/mL
  IL-2 concentration (pg/ml) at 102.4 nM: 126 pg/mL
